Source: the DeepSol protein solubility set

Assay: soluble on expression in E. coli; label from the status in PepcDB or PDB records

Row | Sequence | soluble on expression in E. coli
1 | HVKLEQLGIPRQVLKYDDFLKSTQKSPATAPKPMPPRPPLPNQQFGVSLQHLQEKNPEQEPIPIVLRETVAYLQAHALTTEGIFRRSANTQVVREVQQKYNMGLPVDFDQYNELHLPAVILKTFLRELPEPLLTFDLYPHVVGFLNIDESQRVPATLQVLQTLPEENYQVLRFLTAFLVQISAHSDQNKMTNTNLAVVFGPNLLWAKDAAITLKAINPINTFTKFLLDHQGELFPSPDPSGL | soluble
2 | MTSRRLEESMGAVQMGLVNMFKGFQSKVLPPLSPKVVTEEEVNRMLTPSEFLKEMSLTTEQRLAKTRLMCRPQIIELLDMGETTHQKFSGIDLDQALFQPFPSEIIFQNYTPCEVYEVPLILRNNDKIPRLVKVVEESSPYFKVISPKDIGHKVAPGVPSIFRILFTPEENKDYAHTLTCVTEREKFIVPIKARGARAILDFPDKLNFSTCPVKYSTQKILLVRNIGNKNAVFHIKTCRPFSIEPAIGTLNVGESMQLEVEFEPQSVGDHSGRLIVCYDTGEKVFVSLYGAAIDMNIRLDKNSLTIEKTYISMANQRTITIHNRSNIIAHFLWKVFATQQEEDREKYRACDDLIKEEKDETDEFFEECITDPLLREHLSVLSRTFANQRRLVQGDSKLFFNNVFTVEPLEGDVWPNSSAEITVYFNPLEAKLYQQTIYCDILGREIRLPLRIKGEGMGPKIHFNFELLDIGKVFTGSAHCYEAILYNKGSIDALFNMTPPTSALGACFVFSPKEGIIEPSGVQAIQISFSSIILGNFEEEFLVNVNGSPEPVKLTIRGCVIGPTFHFNVPALHFGDVSFGFPHTLICSLNNTSLIPMTYKLRIPGDGLGHKSISYCEQHVDYKRPSWTKEEISSMKPKEFTISPDCGTIRPQGFAAIRVTLCSNTVQKYELALVVDVEGIGEEVLALLITARYCSPACSSPESPPSLQ | soluble
3 | MKSYLNLKEEVWDKETCSGCGACVSVCPTENIYFKQQSPVQFDCDECACIIVPTENGESPISAEFCKVTLYDVNCGACYNACPRTKERHIFNLEKVPGRVIENYKAKSTLETKNIQSGGVVTAILANAFDEDLIDGAIVMMEDKWTMDPKSYLATSKEDVLKTAGSRYNWNVPILEVLKEAVMVKKLNKIAVVGTPCVINAVYQMMATNNDLVEPFKKAIRLKISLFCFETFDYDKMLKKLKEVEVNPWDIKKMEIDKGKLIVSTIHGNVFNFKIDEMDEYVRKGCKVCRDFTGISSDISVGNVGTPEGYSTVLVRNKWGKGFFDRAVINGYVSVEGEASIDPVISLSKKKMERKDIEFLEHHHHHH | not soluble
4 | SAQESLESQEQRARAALRERYLRSLLAMVGHQVSFTLHEGVRVAAHFGATDLDVANFYVSQLQTPIGVQAEALLRCSDIISYTFKP | soluble
5 | MKTALLLVDIQNDYFPNGKMELRNPVEASEYANQLLQHFRTNSEPILHIQHVAIKDDATFFLPNTEGVHIHESVRPLREETVIVKHYPNSFRETNLLEQLKRLNIEHVVVCGMMTHMCIDATVRAAFDFGFQCTVIHDACATKDLSFKNATIPAVYIHNTILASLNGVYANVISTQEFLAT | not soluble
6 | MRTLTIEPLTKDAFAPFGDVIETDGSDHFMINNGSTMRFHRLAEVDTAQPDDKAIISIFRAESLPMPLTIGMLERHPQGSQAFIPLLGNPFLIVVAPVGDAPESALTRAFVSNGRQGVNYHRGVWHHPVLTIEKQDDFLVVDRSGSGNNCDEHYFEENQRLVLDPNPQEGLEHHHHHH | soluble
7 | MSLSDILILTHAEFCPPGHLATVLAQRGLDFRVVRADLGQLAGLDAERPRAVAIMGGPMSVNDDLPWLGDELALLRRFIERRIPLLGHCLGGQLLARVLGATVRQQPYTEMGWQPMQRESRDSPWLAHLPERFAIFQWHGDAFDLPQGAERLLSSAWCENQAFSWGGHVLGLQGHPEMTEELVRRWIDGWPQLLDSSQPSQQSREAMLADLPLKVAALNRVAEGFYRHWLSLLREGHHHHHH | not soluble
8 | MAVDMFIKIGDVKGESKDKTHAEEIDVLAWSWGMSQSGSMHMGGGGGAGKVNVQDLSFTKYIDKSTPNLMMACSSGKHYPQAKLTIRKAGGENQVEYLIITLKEVLVSSVSTGGSGGEDRLTENVTLNFAQVQVDYQPQKADGAKDGGPVKYGWNIRQNVQA | soluble
9 | MTQYQALIIGFGKAGKTLAATLAKTGWRVAIIEQSASMFGGTCINIGCIPTKTLVHDAEREGDFSVAMQRKAAVVNFLRDKNFHNLADLDNVDVIEGRAEFIDNHTLRVFQADGERVLRGEKIFINTGAESVIPAITGLTTTAGVFDSTGLLSLSQRPARLGILGGGYIGLEFASMFANFGTKVTIFEAAPQFLPREDRDIAQAITRILQEKGVELILNANVQAVSSKEGAVQVETPEGAHLVDALLVASGRKPATAGLQLQNAGVAVNERGGIIVDDYLRTTADNIWAMGDVTGGLQFTYISLDDFRIVRDGLLGDGKRSTRDRQNVPYSVFMTPPLSRVGLTEEQARASGATVQVVTLPVAAIPRARVMNDTRGVLKAVVDVNTQRIVGVSLLCVDSHEMINIVKTVMDADLPYTVLRDQIFTHPTMSESLNDLFSLIK | not soluble
10 | GPGSMKPSFYAVAVGKARGIYSTWAQCSEQVTGYPGCIYKGFRTLDEARSFLAAHPLPSTGSAVSLGGGSSSSVAAPYPSSSEHAALGSNYFKGRLKRETREDLLAGEESVAERQARRRRADHAQIAVAPPELSSMSASLSAATPSTTASKPLATTTTTSSPGAFEVVYVDGACSHNGTSQARAGYGGYYGSMSDPRNFSCPVPLTESQTNNRGEVRAVIHAIVQAFVDAGAPADALEATHLVDPSAWRLVDLTRPLPHLIIYTDSRYVIDGLTRYAKKWVQNGFVLSTNEPVQNQDLWRQLIRLRDRYNTLYARQQHDQQRACQWGDGHHSEADLAQLVRYTCQNARNDKSEGVELIHVRGHSKVHGNEMADSLAVMGSRLHRS | soluble
11 | MKFSVLMSLYIKENPQFLRECFESLVAQTRQADEIVLVFDGVVTPDLEFVVTEFETKLPLKLVKLPQNRGLGKALNEGLLHCDYDWVFRMDTDDICVPDRFEKQVAFIEQHPESIIFGGQIAEFGKNVNDIVAYRNVPTSAQEIIKFTQKRCPFNHMTVAYQKSAVINCGGYEDLQEDYYLWIKLVAQGLYMANLPDILVYARVGNGMVLEHHHHHH | not soluble
12 | MGSDKIHHHHHHMEWEVFEYRTKGIMAEIEAGRLKIVSSYVDKSFSARVILKGRVGFASASTRDEALSLAEKIARISEDELEDFPNEKPASVKGIYDKRVEEADSELIMEEFERLRSAVEKANIASATIEHAVEEVRITNSFGLDSREKSTSSSMIVEAVFEGGSAYEVCGSRSIELDIEGAAKKAEELAVDSAKAIKIEGGTYDVILQPIAVHQLLSNTLYPSLSAENVEKGRSVIRLGDEFGRITVIDDPTVEGGLMSCGFDDEGVSARKTFLIDNGVVRSYYTDWKHSKKYGVTGNGFRLEESSFPAPMVSNVVLEVDDADDDNCLTIHSLIGSHTANPVSGDFSLECNNAYFGEKAVKGAMIYGNVFELLKKVEGGLGELRQIENTVTKSLRFRSVRVI | not soluble
13 | MDYDVLILGGGIIGCSVAYELSKYNLNIALIEKDFDIADDVSFVNTAIVYDGSECKDNLMSYLENMGNMMLPEITKKLNVPFKRVGHLTIADNDETVRIIEENYKRAKSRGINNIYLIDEKRAREIEPNYKGEIKKAMYSENIAVTSPYDLAIGFAEIAYDNGVSFRLEEIVLDIQSIAKGFKVTTNKNKFTCRFVINTTPGEHYTIDQDKDYEQKNALKTYYLLLNDEIKEKTSNIVVKLKNEEEFIIQKNTVNGDTLIGINSNNSLGFMKSLKIAKEMINSISRKHVKDIFYDNHNQDRLIIDDSRKNKGYIKVMGNHYGEVTIAPAVSKIICDEIIDKLNCSLNKNFVDKRREFYRFRELSNEERNELISLDKRYGKIVCLCNGISEGEIVDCIRRPLGARTVEGVKRRTGATFGTCHGAYCISKIINILARELEKKPTEIVEDSKNSKVLASRIKEFDRVLEHHHHHH | not soluble
14 | MGYLKNHWWKRWIRRRGCKLAGGPASVGKRTTLVLEERVELGHLRIVPPRLEIGAYSYVRSGTDLSLVASIGRFCSIGSDCFIGQEKHTHPSDWVSSHPFQHTGTALRYEPALSYAEIGHDVWIGHSAMVMEGVKVGTGAIIATRAVVTRDVPPYAIVAGTPAQVIRYRHPPEIIEGLLASRWWELDSAFLTGLPLDRPREFLAALEAREAPRAAYRRMTITRQGCRLD | not soluble
